Results as given in patent US6919086B1, “Graminae pollen allergen mutants for specific immunotherapy, and production and use of the same” (Merck Patent Gesellschaft mit, priority 1997, dated 2005).
Substitutions are numbered along the chain they refer to. Names and notes keep the numbering of the source.

B1: DM1: deletion mutant of rPhl p 5b (ΔK50-P132, D49→L), SEQ ID NO 91 (protein)
chain: ADAGYAPATPAAAGAAAGKATTEEQKLIEDINVGFKAAVAAAASVPAALAGELQIIDKIDAAFKVAATAAATAPADDKFTVFEAAFNKAIKESTGGAYDTYKCIPSLEAAVKQAYAATVAAAPQVKYAVFEAALTKAITAMSEVQKVSQPATGAATVAAGAATTAAGAASGAATVAAGGYKV
B2: rPhl p 5b deletion mutant DM3 (deletion A154-T177, A220T) (protein)
chain: ADAGYAPATPAAAGAAAGKATTEEQKLIEDINVGFKAAVAAAASVPAADKFKTFEAAFTSSSKAAAAKAPGLVPKLDAAYSVAYKAAVGATPEAKFDSFVASLTEALRVIAGALEVHAVKPVTEEPGMAKIPAGELQIIDKIDAAFKVAATAAGGAYDTYKCIPSLEAAVKQAYAATVAAAPQVKYAVFEAALTKTITAMSEVQKVSQPATGAATVAAGAATTAAGAASGAATVAAGGYKV
B3: rPhl p 5b point mutant PM1 (N32D, D49L, K50A) (protein)
chain: ADAGYAPATPAAAGAAAGKATTEEQKLIEDIDVGFKAAVAAAASVPAALAFKTFEAAFTSSSKAAAAKAPGLVPKLDAAYSVAYKAAVGATPEAKFDSFVASLTEALRVIAGALEVHAVKPVTEEPGMAKIPAGELQIIDKIDAAFKVAATAAATAPADDKFTVFEAAFNKAIKESTGGAYDTYKCIPSLEAAVKQAYAATVAAAPQVKYAVFEAALTKAITAMSEVQKVSQPATGAATVAAGAATTAAGAASGAATVAAGGYKV
B4: rPhl p 5b point mutant PM3 (A13C) (protein)
chain: B3 chain with A13C, D32N, L49D, A50K

Legend:
[1] = system: basophils from the blood of an allergic patient; assay: Histamine release from basophils; assay type: cell-based, human
Description: Apart from the binding of the allergen to the spec. IgE, the allergen-induced, IgE-mediated release of histamine by allergic effect or cells is of pathophysiological importance for the allergic reaction (side effect). The reactivity of the effector cells (basophils and mast cells) and the epitope specificity of the IgE antibodies which are bound by way of FcεRI are also of importance in this context. For this reason, the modified recombinant allergen variants are tested for their ability to induce histamine release by the degranulation of IgE-loaded basophils which are isolated from the blood of allergic patients.
Before the histamine release test was carried out, the basophilic leucocytes from the EDTA blood of an allergic patient ([…]) were first of all enriched by means of dextran sedimentation and then adjusted to a final concentration of 100,000 basophils/ml. In order to release histamine from the basophils, 200 μl of the cell suspension were in each case incubated, at 37° C. for 40 min, with 50 μl of antigen solution. For this, the rPh1 […] p 5b and the mutants were employed in varying concentrations (of 10^−5-10^−12 M). The histamine which was released was determined in the respective supernatants using the Pharmacia methylhistamine RIA in accordance with the manufacturer's instructions.

[2] = target: IgE antibodies of the individual allergic patient serum II/17; assay: EAST inhibition, individual serum II/17
[3] = target: specific IgE on basophils from the blood of allergic patient; assay: cell-based or functional assay
[4] = target: IgE antibodies of the allergic patient serum pool We 6/97; assay: EAST inhibition, serum pool We 6/97

Row | Molecule | Concentration required to bring about a 30% histamine release, fold higher than wild type rPhl p 5b [1] [fold] | IC50 [2] [nM] | allergenic potency (Prel) at 25% inhibition (relative to native Phl p 5b) [2] | allergenic potency (Prel) at 50% inhibition (relative to native Phl p 5b) [2] | inhibition value (inhibitor concentration at 25% inhibition) [2] [mol/L] | concentration required to bring about a 30% histamine release from basophils, against wild type rPh1 p 5b [3] [fold higher] | IC50 [4] [nM] | allergenic potency (Prel) at 25% inhibition (relative to native Phl p 5b) [4] | allergenic potency (Prel) at 50% inhibition (relative to native Phl p 5b) [4] | inhibition value (inhibitor concentration at 25% inhibition) [4] [mol/L]
1 | B1 | 20 |  |  |  |  |  |  |  |  | 
2 | B2 | 3 | 50 | 0.038 | 0.0005 | 5.6e-09 | 3 | 29 | 0.099 | 0.002 | 5.1e-09
3 | B3 |  | 2.2 | 0.336 | 0.119 | 6.4e-10 |  | 120 | 0.415 | 0.051 | 1.2e-09
4 | B4 |  | 5.5 | 0.855 | 0.468 | 2.5e-10 |  | 30 | 0.611 | 0.203 | 8.3e-10
